Test results taken from the supplement of paper PMC10567573.

B1: KRT18 (parent)
chain: RVRSLETENRRLESKIREHLEKKG
B2: ZNF649 (parent)
chain: YHTGKTPFVCPECGQPCSQKSGLI

Variants of: B1
Test: protein stability index of a GFP-peptide fusion (GPS, HEK-293T) (PSI 1-6); higher = more stable
Details: c terminus: a fixed tail appended
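Further: lentivirally expressed fusions sorted by FACS into six bins by GFP to DsRed ratio, PSI derived from sequencing read proportions per bin multiplied by bin number.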

Protein stability index, by site and new letter:
S4: P 4.58, R 4.29, A 4.24, K 4.26, Y 3.3, V 3.54, G 4.35, I 2.97, C 3.5, N 4.32, E 4.48, F 4.29, M 3.64, H 3.84
L5: M 4.77, F 4.5, Y 4.32, C 3.41, D 4.64, V 5.01, N 5.06, A 4.54, T 4.35, W 4.29, K 3.99, Q 4.67
E8: G 4.42, H 4.36, K 3.89, L 4.33, A 4.08, D 3.96, I 4.4, C 4.22
E6: K 4.02, Y 2.53, N 3.33, C 4.43, L 2.31, F 3.32, P 4.44, T 3.01, V 4.11, D 4.62, I 3.84, M 3.4, R 3.96
R3: I 3.91, P 4.42, E 4.85, D 4.22, F 3.46, Y 3.15, W 3.43, V 4.44, C 3.42, G 4.64, Q 4.37, A 4.51, H 3.61, M 3.72, K 4.45, T 4.46, L 4.51
R1: Y 1.78, K 3.94, G 4.36, P 4.45, I 3.38, Q 4.7, F 1.21, H 4.14, D 4.9, C 4.66, V 4.19, N 4.56, E 3.5, M 4.09
V2: L 3.55, H 4.07, W 3.9, E 5.32, I 4.21, A 4.64, T 5.11, Y 4.54, N 4.16, K 4.77, C 4.78, P 4.65, M 3.82, D 4.83, Q 4.44
T7: Q 4.13, F 4.79, L 4.54, G 4.22, Y 4.47, R 4.1, D 4.17, S 4.25, N 4.34, M 4.05, C 4.97, V 3.82, P 4.9, E 5.17

Variants of: B2
Test: as above
Details: c terminus: a fixed tail appended

Protein stability index, by site and new letter:
F8: M 1.62, L 2.1, H 2.41, Q 2.69, K 1.82, I 2.24, C 1.83
L23: Y 1.72, I 2.03, E 1.03, V 2.58, G 4.1, P 2.15, D 2.12, H 2.05
P7: T 2.52, G 2.05, M 1.22, W 2.04, R 1.03, C 2.26, N 1.98, H 3.19, S 1.6
C17: K 3.83, G 2.94, I 2.01, E 1.48, Y 2.35, D 2.63, H 1.73, V 2.26, M 2.14, N 2.76
T3: R 2.23, N 2.03, H 2.78, I 1.56, A 2.57, K 2.87, W 1.48
Q15: C 1.89, V 1.5, H 2.23, G 1.45, W 1.83, E 2.65, S 2.21, R 1.63, Y 1.75
K5: R 2, L 2, S 2.62, E 2.16, G 2.54, H 1.86, P 2.66, W 2.1, T 1.13, D 1.77, Y 3.06
S18: N 1.22, L 1.85, V 1.44, W 1.82, A 2.31, P 2.26, M 3.02, K 1.46, I 2.47, T 2.5, E 3.48, C 2.08
Y1: W 2.48, N 3.08, Q 2.47, E 3.71, V 3.5, T 3.06
E12: Y 2.26, R 2.32, N 1.53, F 2.31, Q 1.9, K 2.35, T 2.07, V 2.22
G4: T 2.62, K 2.18, Q 1.51, V 2.88, E 2.89, N 1.67, H 1.96, F 2.36
G22: E 2.32, D 1.49, T 1.65, S 2.63, L 2.97, Y 3, Q 2.2, N 2.3, I 2.15, C 2.19, P 2.91, R 2.22, V 2.92, H 2.72
K20: D 1.72, C 4.04, H 2.43, L 1.37, M 1.53, T 1.8, R 2.69
I24: V 1.67, H 2.42, C 3.08, T 2.01, Q 2.33, P 1.54, M 1.84, K 1.84, L 1.52
C13: E 2.87, Q 2.54, A 3.53, M 2.98, F 2.8, S 1.62, N 1.83, T 2.99, R 2.37, V 2.13
T6: S 1.53, V 1.65, L 2.21, H 2.91, K 1.79, E 2.89, N 2.89, C 1.45, A 2.07, D 1.92
H2: I 2.36, D 3.69, A 1.99, E 3.55, K 2.76, V 1.96, M 2.51, Q 2.28, P 2.15, F 2.25, Y 2.42
Q19: D 2.37, E 1.71, R 2.27, K 1.29, T 2.81, P 2.04, I 1.57, F 2, G 1.49
G14: C 2.12, Y 2.27, P 2.54, F 1.94, K 2.76, V 2.06, I 1.79, W 1.61, M 2.05
S21: M 2.26, D 1.76, I 1.67, G 2.41, P 1.9, E 1.85, L 2.15, N 1.93, H 1.81, A 1.4, F 1.89
P11: N 1.62, H 2.16, I 1.69, L 1.71, E 1.61, C 1.65, D 1.4, T 2.49, G 1.43, F 2.44
P16: G 2.99, S 1.9, K 1.98, I 1.87, H 2.65, Y 1.04, L 2.82, D 1.91, N 1.23
V9: A 3.38, F 3.17, G 1.79, R 2.24, W 2.49, H 2.47, Q 2.02, L 2.99, D 2.39, Y 3.65, N 3, K 1.58, I 2.38
C10: I 2.33, M 1.53, F 1.98, W 2.79, P 1.54, N 2.23, L 2.06, H 1, E 1.33, R 1.75
